# Measured values from patent publication US9040266B2, “Cell-based systems for production of methyl formate” (The Regents of the University of California, priority 2009, dated 2015).
# B1: Leptospirillum: methyl halide transferase from Leptospirillum sp. Group II UBA, SEQ ID NO: 11 (protein)
# chain: MPDKIFWNQRYLDKNTGWDLGQPAPPFVRLVEKGEFGPPGRVLIPGAGRSYEGIFLASRGYDVTCVDFAPQAVREAREAARQAGVKLTVVEEDFFRLDPRTIGVFDYLVEHTCFCAIDPPMRQAYVDQSHALLAPGGLLIGLFYAHGREGGPPWTTTEEEVRGLFGKKFDLLSLGLTDWSVDSRKGEELLGRLRRKNDRIE
# modifications: Leptospirillum species, synthetic polypeptide of methyl halide transferase thereof
# B2: B. phymatum: methyl halide transferase from Burkholderia phymatum STM815, SEQ ID NO: 4 (protein, listed as Burkholderia phymatum)
# chain: MSDKRPSVPPSAPDFENRDPNAPGFWDERFGRGFTPWDQAGVPPAFKAFVERHSPVPVLIPGCGSAYEARWLAEKGWTVRAIDFAPNAVEAARAQLGSHASLVHEADFFTYRPPFDPGWIYERAFLCALPPARRSDWVARMAQLLSPGGLLAGFFFIGATEKGPPFGIERAELDALMSPDFTLVEDEPVDDSIAVFAGRERWLTWRRRGAARG
# B3: C. neoformans JEC21: methyl halide transferase (hypothetical protein) from Cryptococcus neoformans var. neoformans JEC21, SEQ ID NO: 12 (protein)
# chain: MAQASGDDNAWEERWAQGRTAFDQSAAHPVFVKFLKSDIARELGVPKSGKALVPGCGRGYDVHLLASTGLDAIGLDLAPTGVEAARRWIGSQPSTSGKADILVQDFFTYDPLEKFDLIYDYTFLCALPPSLRQEWARQTTHLANIAADTNPILITLMYPLPPSAKSGGPPFALSEEIYQELLKEQGWKMVWSEDIEEPTRMVGAPGGEKLAVWKRI
# modifications: Cryptococcus neoformans
# B4: O. sativa: methyl halide transferase from Oryza sativa (japonica cultivar-group), SEQ ID NO: 13 (protein, listed as Oryza sativa)
# chain: MASAIVDVAGGGRQQALDGSNPAVARLRQLIGGGQESSDGWSRCWEEGVTPWDLGQRTPAVVELVHSGTLPAGDATTVLVPGCGAGYDVVALSGPGRFVVGLDICDTAIQKAKQLSAAAAAAADGGDGSSSFFAFVADDFFTWEPPEPFHLIFDYTFFCALHPSMRPAWAKRMADLLRPDGELITLMYLAEGQEAGPPFNTTVLDYKEVLNPLGLVITSIEDNEVAVEPRKGMEKIARWKRMTKSD
# B5: O. tauri: methyl halide transferase (unnamed protein product) from Ostreococcus tauri, SEQ ID NO: 14 (protein, listed as Ostreococcus tauri)
# chain: MTTSSAPTRHTSMRVALAAPATVTRRLGTYKRVFDRRAMSTRAIDGAVTSNAGDFARQDGSTDWEGMWSRGITKGAAFDCSRTEPAFQNALDAKEIAIGSGRALVPGCGRGYALASLARAGFGDVVGLEISETAKEACEEQLKAESIPETARVEVVVADFFAYDPKEAFDAAYDCTFLCAIDPRRREEWARKHASLIKPGGTLVCLVFPVGDFEGGPPYALTPEIVRELLAPAGFEEIELRETPAEMYARGRLEYLFTWRRRS
# B6: RB: methyl halide transferase from Robiginitalea bofirmata HTCC2501, SEQ ID NO: 17 (protein, listed as Robiginitalea biformata)
# chain: MTDLDRDFWEDRYRAGTDRWDLGGPSPPLTAYIDGLTDQELRILVPGAGRGYEAEYLYRAGFENLTIVDLARRPLDDLRRRLPELPAAALQQTDFFSFRGGPFDLILEHTFFCALPPARRPDYVQAMHRLLVPGGRLAGLFFDFPLTEDGPPFGGSETEYRNRFSSLFHIRKLERARNSIPPRAGTELFFIFEKK
# B7: MM: methyl halide transferase from Maricaulis maris MCS10, SEQ ID NO: 18 (protein, listed as Maricaulis maris)
# chain: MTHDENRSAFDWEARFIDGNTPWERGALHPAFEAWQHQSAFAAGDRALIPGCGRSPELLALAQAGLAVTGADLSGTAMAWQRKLFADAGQQVELITGDVFDWQPQQALDLVYEQTFLCAIHPRLRTRYEEALARWLKPGGRLYALFMQKPERGGPPFDCALDAMRALFPAERWTWPAEADIQPWPHPQLNGKAELGAVLIRR
# B8: VV: methyl halide transferase from Vitis vinifera, SEQ ID NO: 20 (protein, listed as Vitis vinifera)
# chain: MASPDNTKPKARSSESVTGQRRGRRPSDRHWPCVGEESGSFYNTIADGERQYQHRIELRASKNKPSSWEEKWQQGLTPWDLGKATPIIEHLHQAGALPNGRTLIPGCGRGYDVVAIACPERFVVGLDISDSAIKKAKESSSSSWNASHFIFLKADFFTWNPTELFDLIIDYTFFCAIEPDMRPAWASRMQQLLKPDGELLTLMFPISDHTGGPPYKVSIADYEKVLHPMRFKAVSIVDNEMAIGSRKKKYPLKPDLSLFGFVDRPKRAYEARSEEFRISDWVCGWMGLCVPSGRISGGVCGLLSGRSLTWAKNLGVSTTQLRMSNNGSSIESNPKVQKLNQIIGSDSAGGWEKSWQQGHTPWDLGKPTPIIQHLHQTGTLPSGKTLVPGCGCGYDVVTIACPERFVVGLDISDSAIKKAKEISDHAGGPPYKVSVADYEEVLHPMGFKAVSIVDNKMAIGPRKGREKLGRWKRTPSKSLL
# B9: HH: methyl halide transferase from Halorhodospira halophila SL1, SEQ ID NO: 21 (protein, listed as Halorhodospira halophila)
# chain: MSGDPDPRRAPWEARWREGRTGWDRGGVSPTLEAWLSAGVIPGRRVLVPGAGRGYEVEALARRGYKVTAVDIAAEACQQLRDGLDAAGVEARVVQADLLAWQPDTPFDAVYEQTCLCALDPADWPAYEQRLYGWLRPGGVLLALFMQTGASGGPPFHCALPEMATLFDSERWQWPAEPPRQWPHPSGRWEEAVRLLRR
# B10: FB: methyl halide transferase from Flavobacteria bacterium BBFL7, SEQ ID NO: 19 (protein, listed as Flavobacteria bacterium)
# chain: MPLNKQYWEDRYKNNSTGWDLGIISTPIKEYVNQLENKNSKILIPGAGNAHEATYLVKNGFKNIFILDIALSPLKFAKQRSKLPEEHLIQQDFFDHKGSYDLIIEQTFFCALEPRFRESYVKKIHMLLRDQGCLIGVLFNFENNLSSPPFGGSINEYLNLFEPYFEIVTMEPCNNSVIERQGKEIFIKLKKKK
# B11: AT-2: methyl halide transferase from Arabidopsis thaliana TM2, SEQ ID NO: 10 (protein, listed as Arabidopsis thaliana)
# chain: MAEEQQNSDQSNGGNVIPTPEEVATFLHKTVEEGGWEKCWEEEITPWDQGRATPLIVHLVDTSSLPLGRALVPGCGGGHDVVAMASPERFVVGLDISESALAKANETYGSSPKAEYFSFVKEDVFTWRPTELFDLIFDYVFFCAIEPEMRPAWAKSMYELLKPDGELITLMYPITDHVGGPPYKVDVSTFEEVLVPIGFKAVSVEENPHAIPTRQREAGKVEEDQLIPKKEILLFGKSVICVIYKE
# Tested on: methyl bromide and methyl iodide production in E. Coli
# Test: Methyl halide production by heterologous MHTs expressed in E. coli (Example 8, headspace GC/MS)
# Assay type: cell-based
# Settings: 165 mM NaX, 100 uM IPTG, 1.5 hours, FIG. 7
# Method: Nineteen methyl halide transferase genes from various organisms were codon-optimized and introduced into E. Coli. Production of methyl bromide and methyl iodide was determined for each. […] Group II UBA; Cryptococcus neoformans var. neoformans JEC21; Oryza sativa (japonica cultivar-group); Ostreococcus tauri; Dechloromonas aromatica RCB; Coprinopsis cinerea okayama; Robiginitalea bofirmata HTCC2501; Maricaulis maris MCS10; Flavobacteria bacterium BBFL7; Vitis vinifera and; halorhodospira halophila SL1.
# For each strain a single colony was picked and grown overnight (10-14 hrs) in 20 mL of LB miller in a 30 mL glass test tube with aeration (a loose cap) at 37 C and 250 rpm shaking. The culture was spun down in a swinging bucket centrifuge for 5 min @ 3000×g. The cells were resuspended in 20mL of appropriate media (10 g/L Tryptone, 5 g/L Yeast Extract, 165 mM NaX [where X=CI, Br, I]) containing 100 uM IPTG inducer. The cells were sealed with rubber stoppers and parafilm and grown at 37 C with 250 rpm shaking for 1.5 hours. Cultures were taken to the GC/MS and 100 uL of headspace gas was sampled and loaded onto the column. The method run was VOIGT.m. The number of counts for the appropriate mass (MeCl, MeBr, MeI) were reported. Cells were always grown in the presence of 30 ug/mL chloramphenicol.
# Methyl halide production was measured as described in the previous Examples. […] C. neoformans JEC21 gave the best methyl bromide and methyl iodide production. Leptospirillum gave the best methyl iodide production.
Molecule,methyl iodide production,methyl bromide production
B1,best,–
B2,–,best
B3,best,best

# Same assay, conditions: FIG. 7
Molecule,halide specificity of methyl halide production,methyl halide transferase activity
B4,significant specificity for methyl iodide production,–
B5,significant specificity for methyl iodide production,–
B6,–,insignificant activity
B7,–,insignificant activity
B8,–,insignificant activity
B9,–,insignificant activity
B10,–,insignificant activity
B11,–,insignificant activity
